In general, EC50 refers to the concentration that produces a half-maximal response. Read a high EC50 as a need for much substance.

The target of assay [1] is mFGFR2β-Fc (IIIc) (murine) (UniProt P21803). Briefly: ELISA, 1 ug/ml Fab on coated antigen; grade of signal to background (+ 2-3, ++ 3-5, +++ >5).
Assay [2] concerns the target hFGFR2β-Fc (IIIc) (human) (UniProt P21802). Described as above.
Assay [3] deals with human FGFR2 on human cancer cell lines (human) (UniProt P21802). Description: FACS, 5 ug/ml, MFE280 cells. (In general: A flow cytometer gives signals particle by particle.)
In assay [4] the target is murine FGFR2 on murine cancer cell lines (murine) (UniProt P21803). Briefly: FACS, 5 ug/ml, 4T1 cells.
Assay [5] has as its target human FGFR2 on human cancer cell lines (human) (UniProt P21802). Briefly: FACS, 5 ug/ml, NCI-N87 cells.
Assay [6] has the same target. Description: FACS, 5 ug/ml, SNU16 cells.
Assay [7] has the same target. Description: FACS, 5 ug/ml, KATOIII cells.
For assay [8] the target is unchanged. Briefly: FACS titration 0.1-100 nM, SNU16 cells.
The target in assay [9] is murine FGFR2 on murine cancer cell lines (murine) (UniProt P21803). Briefly: FACS titration 0.1-100 nM, 4T1 cells.
The target in assay [10] is human FGFR2 on human cancer cell lines (human) (UniProt P21802). Description: FACS, 5 ug/ml, HEC1b cells.
For assay [11] the target is unchanged. Briefly: FACS titration 0.1-100 nM, MFM223 cells.

A value given as a limit tells only on which side of the number the result lay.

B1: M048-D01 (soluble Fab) (Fab, V domains shown)
VH: EVQLLESGGGLVQPGGSLRLSCAASGFTFSSYAMSWVRQAPGKGLEWVSAISGSGTSTYYADSVKGRFTISRDNSKNTLYLQMNSLRAEDTAVYYCARVRYNWNHGDWFDPWGQGTLVTVSS
VL: QSVLTQPPSASGTPGQRVTISCSGSSSNIGNNYVSWYQQLPGTAPKLLIYENYNRPAGVPDRFSGSKSGTSASLAISGLRSEDEADYYCSSWDDSLNYWVFGGGTKLTVL
With B1, the ELISA signal to background ratio in [1] and in assay [2] was above 5 throughout.

B2: M021-H02-hIgG1 (antibody, V domains shown)
VH: EVQLLESGGGLVQPGGSLRLSCAASGFTFSNYGIHWVRQAPGKGLEWVAVISYDGSNKYYADSVKGRFTISRDNSKNTLYLQMNSLRAEDTAMYYCARDSSSAEDYWGQGTLVTVSS
VL: QSVLTQPPSASGTPGQRVTISCSGSSSNTGSNTVNWYQQLPGTAPKLLIYRNNQRPSGVPDRFSGSKSGTSASLAISGLRSEDEADYYCETWDSNTRGVVFGGGTKLTVL
Take B2: the Geo Mean minus Geo Mean of secondary antibody alone (FACS) was 10 to 100 geomean in assay [3]; 100 to 1000 geomean in assay [4]; 10 to 100 geomean in assay [5]; 100 to 1000 geomean in assay [6]; above 10000 geomean in [7]; 100 to 1000 geomean in assay [10]. The EC50 in assay [8] stood at 89.5 nM; in assay [9], 20.8 nM; in assay [11], 16.9 nM.

B3: M021-H02 (soluble Fab) (Fab, V domains shown)
VH: EVQLLESGGGLVQPGGSLRLSCAASGFTFSNYGIHWVRQAPGKGLEWVAVISYDGSNKYYADSVKGRFTISRDNSKNTLYLQMNSLRAEDTAMYYCARDSSSAEDYWGQGTLVTVSS
VL: QSVLTQPPSASGTPGQRVTISCSGSSSNTGSNTVNWYQQLPGTAPKLLIYRNNQRPSGVPDRFSGSKSGTSASLAISGLRSEDEADYYCETWDSNTRGVVFGGGTKLTVL
As for B3, the ELISA signal to background ratio in assay [1] and in assay [2] was above 5 throughout.

The values above are taken from patent US20140322220A1.
